Values of other authors, collected in publication PMC8227800.

Molecular target: Cdh2 (Danio rerio) (UniProt Q90275)

Kd: 0.2 µM
Substance: Cdh2 (from UniProt Q90275)
